By Kd is commonly meant a measure of binding affinity in units of concentration. A lower Kd goes with higher affinity.

The assay concerns the target T1, TIM-3 (分析物, SPR analyte).
T1 construct: also called TIM-3抗原; 分析物(TIM-3)
As to the kind of experiment: SPR (Biacore T200), 25°C; antibody captured by anti-human IgG Fc on a CM5 chip, TIM-3 as analyte at 0-100 nM, 1:1 binding model. On the technique in general: Surface plasmon resonance follows binding to a sensor surface in real time, without labels.

T1 sequence (Q8TDQ0 22-202): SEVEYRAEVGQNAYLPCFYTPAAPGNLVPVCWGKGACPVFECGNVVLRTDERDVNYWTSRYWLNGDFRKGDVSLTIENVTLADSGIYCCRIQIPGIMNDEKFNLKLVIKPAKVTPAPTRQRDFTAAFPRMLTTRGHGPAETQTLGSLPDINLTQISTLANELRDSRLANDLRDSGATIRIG

B1: 抗TIM-3抗体 (anti-TIM-3 monoclonal antibody of the invention) (antibody, V domains shown)
VH: QVQLQESGPGLVKPGETLSLTCAVSGGSFSRGGYYWNWIRQPPGKGLEWIGYIYYSGSTNYNPSLKSRVTISLDTSKNQFSLKLSSVTAEDTAVYYCARDHYTSSYNYDYWGQGTLVTVSS
VL: EIVLTQSPATLSLSPGERATLSCRASESVQSYIAWYQQKPGQAPRLLIYNASQRSTGIPARFSGSGSGTDFTLTISSLEPEDFAVYYCQQRFSWPPTFGQGTKLEIK
notes: The variable regions were cloned into the ZY-CDMO vector and expressed in CHO cells; The antibody was purified on Protein A, captured by an anti-human IgG Fc antibody and detected with goat anti-human-HRP, so it carries a human IgG Fc; It came from a phage antibody library; also called 抗TIM-3单克隆抗体; 本发明抗TIM-3抗体
Turning to B1, the Kd amounted to 6.41 nM.

The values are drawn from CN110407938A (BEIJING JOINN BIOTECHNOLOGY CO LTD, dated 2019).
